Experimental data from patent publication US7078174B1, “Screening methods using SOCS box-containing peptides” (The Walter & Eliza Hall Institute of Medical Research, priority 1998, dated 2006).
“Also recorded” adds a separate entry of the source. Square brackets hold non-standard residues; d marks the D form. Ends that are not written are not given here. Peptide text beside a SMILES is read from it. * marks the point of attachment. Biotin = O=C1N[C@H]2[C@H](CS[C@H]2CCCCC(=O)*)N1; Nle = CCCC[C@H](N)C(=O)O

Key:
[1] = biological target: T1, elongins B and C (Mus musculus, UniProt P62869+P83940); assay: Affinity purification of SOCS box-binding proteins from M1 cell lysates on GST-SOCS box Sepharose; set-up: species or system murine; settings: mass spectrometry and Western blot, not seen with GST control
T1 construct: endogenous in cells; host or cells: M1 murine monocytic leukemic cells
Description: DNA fragments encoding the SOCS boxes from mouse SOCS-1 (residues 172–212) and SOCS-3 (residues 186–225) with an N-terminal linker sequence (EGKSSGSGSESKVD) (SEQ ID NO:3) were generated by PCR and cloned into the bacterial expression vector pGEX-2T (9). The GST fusion proteins were purified by affinity chromatography on glutathione Sepharose 4B (Amersham Pharmacia Biotec) and affinity resins were prepared by covalently coupling 1 mg of purified proteins to 1 ml of NHS-activated Sepharose resin (Amersham Pharmacia Biotec). Before use, the affinity resins were washed with elution buffer (0.5% w/v SDS, 50 mM DTT, 50 mM Tris-HCl, pH 8.0 and 150 mM NaCl) and equilibrated in lysis buffer (0.5% w/v Nonidet P-40, 10 mM Tris-HCl, pH 7.5 and 100 mM NaCl).
M1 cells (2×10^10) were lysed on ice for 30 min in 100 ml of lysis buffer supplemented with protease inhibitors (Complete Cocktail tablets; Boehringer Mannheim, Mannheim, Germany), 1 mM PMSF, 1 mM Na3VO4 and 1 mM NaF. The total cell lysate was centrifuged at 15,000 rpm (SS34 rotor) for 15 min at 4° C. and the clarified supernatant pre-incubated with 1 ml of GST-Sepharose resin for 2 h at 4° C. Half the GST-Sepharose-depleted M1 cell lysate was incubated with 1 ml of GST-SOCS-1 SOCS box- and the other half with GST-SOCS-3 SOCS box-Sepharose resin for 2 h at 4° C. […]

[2] = biological target: T1, elongins B and C; assay: Affinity purification from M1 cellular extracts with biotinylated SOCS-1 SOCS box peptide on streptavidin-agarose; format: binding, murine; settings: streptavidin-agarose bound peptide; mass spectrometry
Description: (§1) Following biotinylation, the peptide was reduced by treatment with 5 mM DTT. Typically, peptide was coupled to streptavidin-agarose resin (Pierce immunopure; 1–2 mg streptavidin/mL resin) by incubating equal volumes of resin and 1 mg/mL peptide for 1 h, followed by extensive washing.
(§2) M1 cells were lysed as previously described, except at a concentration of 10^9 cells/mL of lysis buffer. Streptavidin-agarose binding proteins were precleared from lysate by treating overnight at 4° C. with streptavidin-agarose resin (100 μL of resin/mL lysate). SOCS box peptides (SOCS-1, ASB-2 and WSB-2) were solubilized in water at 10 mg/mL, and aliquots of these, or water alone, were added to 350 μL fractions of cleared lysate, followed by incubation for 3 h at 4° C. These lysates were then added to 30 μL of SOCS-1 SOCS box peptide resin and incubated a further 2 h at 4° C. The resin was extensively washed with lysis buffer and bound proteins were eluted with 20 μL of 4×SDS sample buffer. Proteins were separated by SDS-PAGE on a 4–15% reducing gel.

[3] = test system: SOCS-3 protein; assay: IL-6-induced expression of endogenous SOCS-3 protein in J774 cells; format: cell-based; settings: LLnL 50 μM, 100 ng/ml murine IL-6, 30–180 min
Description: Mouse macrophage-like J774 cells were grown continuously in DME containing 10% bovine calf serum. The cells were washed once in PBS, twice with DME and starved for 1 h in DME containing 0.1% w/v low-endotoxin bovine serum albumin (BSA; Sigma). The proteasome inhibitor LLnL dissolved in dimethyl sulfoxide (DMSO) or DMSO was added to the cells for 15 min and the cells then stimulated with 100 ng/ml of murine IL-6 for the indicated times.
Proteins were immunoprecipitated with anti-myc (9E10; WEHI) and protein A-Sepharose or anti-FLAG antibody conjugated to Sepharose (KM5-IC7; WEHI) and separated by sodium dodecyl sulphate-polyacrylamide gel electrophoresis (SDS-PAGE) (Biorad, Hercules, Calif.) under reducing conditions. Proteins were then electrophoretically transferred to PVDF-Plus membranes (Micron Separations Inc. WestBorough, Mass.) and Western blotted as described (8).

[4] = biological target: T2, elongin C (Mus musculus, UniProt P83940); assay: Competition of SOCS-1 SOCS box/elongin C interaction in M1 cellular extracts; format: binding, murine; settings: 80 mM competing non-biotinylated SOCS box peptide, SDS-PAGE, silver staining
T2 construct: endogenous in cells; host or cells: M1 murine monocytic leukemic cells (lysate)
Description: as §1, §2

T2 sequence (P83940 whole entry): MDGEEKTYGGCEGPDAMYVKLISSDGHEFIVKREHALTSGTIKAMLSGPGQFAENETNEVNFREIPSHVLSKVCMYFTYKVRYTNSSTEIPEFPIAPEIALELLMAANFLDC
T2 sequence (P62869 whole entry partner): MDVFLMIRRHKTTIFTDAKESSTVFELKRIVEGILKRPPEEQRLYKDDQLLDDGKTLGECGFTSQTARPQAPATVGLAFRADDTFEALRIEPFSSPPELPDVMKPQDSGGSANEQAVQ
T1 sequence (P83940 whole entry): as the sequence (P83940 whole entry) above
T1 sequence (P62869 whole entry): as the sequence (P62869 whole entry partner) above

Row | elongins B and C in eluates from affinity resin [1] | Compound | competition of elongin C binding to immobilized SOCS-1 SOCS box peptide [4] | further results
1 | both elongins were present in eluates | GST-SOCS-1 SOCS box: GST fusion protein with SOCS box of mouse SOCS-1 (residues 172–212) and N-terminal linker, coupled to Sepharose (EGKSSGSGSESKVDVRPLQELCRQRIVAAVGRENLARIPLNPVLRDYLSSFPFQI; not fully specified (N-terminus); also: coupled to Sepharose) |  | 
2 |  | biotinylated SOCS-1 SOCS box peptide: SOCS-1 SOCS box peptide biotinylated at the amino terminus with sulfosuccinimidobiotin, coupled to streptavidin-agarose (Biotin-LRQRRVRPLQELCRQRIVAAVGRENLARIPLNPVLRDYLSSFPFQI; also: coupled to streptavidin-agarose) |  | interacting proteins identified in M1 cellular extracts [2]: identification by mass spectrometry of elongins B and C as interacting proteins
3 | both elongins were present in eluates | GST-SOCS-3 SOCS box: GST fusion protein with SOCS box of mouse SOCS-3 (residues 186–225) and N-terminal linker, coupled to Sepharose (EGKSSGSGSESKVDVATLQHLCRKTVNGHLDSYEKVTQLPGPIREFLDQYDAPL; not fully specified (N-terminus); also: coupled to Sepharose) |  | 
4 |  | CCCC[C@@H](C=O)NC(=O)[C@H](CC(C)C)NC(=O)[C@H](CC(C)C)NC(C)=O [LLnL, N-acetyl-L-leucinyl-L-leucinyl-norleucinal] (Ac-Leu-Leu-[Nle]-aldehyde) |  | SOCS-3 protein levels after IL-6 stimulation [3]: continual increase in SOCS-3 protein levels
5 |  | SOCS-1 SOCS box peptide: Synthetic peptide fragment of murine SOCS-1 corresponding to the SOCS box and five upstream N-terminal residues (LRQRRVRPLQELCRQRIVAAVGRENLARIPLNPVLRDYLSSFPFQI) | competed for this interaction; also recorded: prevented binding of elongin C to immobilized SOCS-1 SOCS box | 
6 |  | WSB-2 SOCS box peptide: Synthetic peptide fragment of murine WSB-2 corresponding to the SOCS box and five upstream N-terminal residues (TAPRVLSSLKHLCRKALRSFLTTYQVLALPIPKKMKEFLTYRTF) | competed for this interaction; also recorded: prevented binding of elongin C to immobilized SOCS-1 SOCS box | 
